Source: patent publication US12214008B2, “Protein interfaces” (SyntheX, Inc., priority 2016, dated 2025)

Legend:
Type in all cases: binding
[1] = biological target: T1, S.cerevisiae Rad51 (1-226) + H.sapiens Rad51 (168-339) (UniProt P25454+Q06609); test: Y2H assay, RAD51 hybrid constructs; set-up: key: cells having the interaction would survive (+); cells not having the interaction would die (−) on selective media (−ADE, −HIS)
T1 construct: S.cerevisiae Rad51 (1-226) +; H.sapiens Rad51 (168-339); expressed in transfected cells
T1 sequence (Q06609 168-339, one chain of several): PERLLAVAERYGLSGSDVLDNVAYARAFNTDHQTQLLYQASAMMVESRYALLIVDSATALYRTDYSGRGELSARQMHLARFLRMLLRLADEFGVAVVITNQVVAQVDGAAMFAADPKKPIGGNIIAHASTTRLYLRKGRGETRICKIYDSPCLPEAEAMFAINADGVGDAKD
Protocol: (§1) RAD51-binding peptides were tested for ability to bind RAD51 of several different species using a “conventional” Y2H assay, where interaction between the two-hybrid pair drove expression of ADE2 and HIS genes. In this Y2H assay the two-hybrid pair was RAD51 and the compound 5 peptide sequence (SEQ ID NO.: 5), so that cells having the interaction would survive (+) and cells not having the interaction would die (−) on selective media (−ADE, −HIS).
(§2) Based on sequence comparisons of S. cerevisiae and H. sapiens RAD51, multiple cerevisiae-sapiens hybrid constructs of RAD51 were constructed and tested for their ability to bind RAD51-binding peptide in the same RAD51/SEQ ID NO.: 5 hybrid system described above.

[2] = biological target: T2, S.cerevisiae Rad51 (1-250) + H.sapiens Rad51 (190-339) (UniProt P25454+Q06609); test: Y2H assay, RAD51 hybrid constructs; set-up: key: cells having the interaction would survive (+); cells not having the interaction would die (−) on selective media (−ADE, −HIS)
T2 construct: S.cerevisiae Rad51 (1-250) +; H.sapiens Rad51 (190-339); expressed in transfected cells
T2 sequence (Q06609 190-339, one chain of several): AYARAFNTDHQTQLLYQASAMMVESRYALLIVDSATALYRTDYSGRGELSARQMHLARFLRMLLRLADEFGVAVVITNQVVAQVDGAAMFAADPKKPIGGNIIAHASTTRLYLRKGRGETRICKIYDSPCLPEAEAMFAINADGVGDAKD
Protocol: as §1, §2

[3] = biological target: T3, S.cerevisiae Rad51 (1-278) + H.sapiens Rad51 (218-339) (UniProt P25454+Q06609); test: Y2H assay, RAD51 hybrid constructs; set-up: key: cells having the interaction would survive (+); cells not having the interaction would die (−) on selective media (−ADE, −HIS)
T3 construct: S.cerevisiae Rad51 (1-278) +; H.sapiens Rad51 (218-339); expressed in transfected cells
T3 sequence (P25454 1-278): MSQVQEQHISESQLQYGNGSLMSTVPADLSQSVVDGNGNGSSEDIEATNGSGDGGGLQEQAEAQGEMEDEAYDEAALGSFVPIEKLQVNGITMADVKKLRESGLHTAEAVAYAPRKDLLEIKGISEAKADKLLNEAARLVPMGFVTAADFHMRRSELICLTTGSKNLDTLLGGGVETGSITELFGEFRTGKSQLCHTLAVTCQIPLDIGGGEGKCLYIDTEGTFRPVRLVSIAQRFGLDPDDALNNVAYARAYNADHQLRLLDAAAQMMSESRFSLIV
T3 sequence (Q06609 218-339): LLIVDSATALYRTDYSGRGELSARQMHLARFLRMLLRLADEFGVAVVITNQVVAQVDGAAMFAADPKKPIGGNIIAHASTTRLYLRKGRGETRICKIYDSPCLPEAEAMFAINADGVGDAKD
Protocol: as §1, §2

[4] = biological target: T4, Rad51 (S208E; A209D) (Homo sapiens, UniProt Q06609, A209D/S208E); test: Y2H assay, human RAD51 mutants; set-up: key: (+) denotes a successful interaction between the two Y2H baits; (−) denotes a lack of interaction
T4 construct: expressed in transfected cells
T4 sequence (Q06609 1-339 S208E/A209D): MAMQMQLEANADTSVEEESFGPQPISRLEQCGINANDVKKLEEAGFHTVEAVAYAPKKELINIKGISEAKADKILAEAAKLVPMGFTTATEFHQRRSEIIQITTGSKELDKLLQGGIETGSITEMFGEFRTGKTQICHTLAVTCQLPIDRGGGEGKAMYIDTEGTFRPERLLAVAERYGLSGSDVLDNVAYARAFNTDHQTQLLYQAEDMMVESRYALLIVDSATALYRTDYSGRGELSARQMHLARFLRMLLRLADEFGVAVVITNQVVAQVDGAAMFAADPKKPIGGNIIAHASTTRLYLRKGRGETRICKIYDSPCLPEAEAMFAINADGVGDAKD
Protocol: The ability of peptides to bind human RAD51 with various mutations was then tested by Y2H assay. […] While mutations affecting BRCA2 binding had no effect on peptide binding, mutations that affected RAD51-AP1 binding did disrupt peptide binding. As these mutations were at residues 202, 205, and 206, they were consistent with the previous fusion data showing binding somewhere in the 190-218 region, and indicated the peptide SEQ ID NO.: 5 contacts at least residues 202, 205, and 206 of RAD51.

[5] = system: K.pastoris Rad51; test: Y2H assay RAD51/SEQ ID NO.: 5 pair; set-up: key: cells having the interaction would survive (+); cells not having the interaction would die (−) on selective media (−ADE, −HIS)
Protocol: as §1

[6] = biological target: T5, S.cerevisiae Rad51 (Saccharomyces cerevisiae, UniProt P25454); test: Y2H assay RAD51/SEQ ID NO.: 5 pair; set-up: key: cells having the interaction would survive (+); cells not having the interaction would die (−) on selective media (−ADE, −HIS)
T5 construct: expressed in transfected cells
T5 sequence (P25454 whole entry): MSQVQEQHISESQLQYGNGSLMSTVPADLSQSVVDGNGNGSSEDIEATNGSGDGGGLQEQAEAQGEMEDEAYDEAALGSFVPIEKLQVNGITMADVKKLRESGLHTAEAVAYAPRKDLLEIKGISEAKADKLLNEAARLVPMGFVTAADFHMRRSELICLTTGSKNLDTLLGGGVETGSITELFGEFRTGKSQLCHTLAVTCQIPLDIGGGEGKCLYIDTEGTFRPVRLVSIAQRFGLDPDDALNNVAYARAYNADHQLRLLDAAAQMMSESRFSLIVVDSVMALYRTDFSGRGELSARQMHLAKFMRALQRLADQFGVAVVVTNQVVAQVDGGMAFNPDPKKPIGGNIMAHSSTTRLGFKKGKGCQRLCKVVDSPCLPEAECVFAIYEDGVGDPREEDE
Protocol: as §1

[7] = system: K.lactis Rad51; test: Y2H assay RAD51/SEQ ID NO.: 5 pair; set-up: key: cells having the interaction would survive (+); cells not having the interaction would die (−) on selective media (−ADE, −HIS)
Protocol: as §1

[8] = biological target: T6, G.gallus Rad51 (Gallus gallus, UniProt P37383); test: Y2H assay RAD51/SEQ ID NO.: 5 pair; set-up: key: cells having the interaction would survive (+); cells not having the interaction would die (−) on selective media (−ADE, −HIS)
T6 construct: expressed in transfected cells
T6 sequence (P37383 1-339): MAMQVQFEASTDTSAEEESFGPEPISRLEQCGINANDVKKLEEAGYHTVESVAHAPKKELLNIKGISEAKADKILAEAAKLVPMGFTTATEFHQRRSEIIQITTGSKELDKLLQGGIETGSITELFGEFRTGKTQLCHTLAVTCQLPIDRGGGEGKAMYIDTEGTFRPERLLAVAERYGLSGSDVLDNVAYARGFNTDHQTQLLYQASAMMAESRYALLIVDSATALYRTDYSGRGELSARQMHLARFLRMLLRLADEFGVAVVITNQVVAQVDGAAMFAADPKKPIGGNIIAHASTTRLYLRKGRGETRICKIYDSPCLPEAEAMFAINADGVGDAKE
Protocol: as §1

[9] = biological target: T7, S.pombe Rad51 (Schizosaccharomyces pombe, UniProt P36601); test: Y2H assay RAD51/SEQ ID NO.: 5 pair; set-up: key: cells having the interaction would survive (+); cells not having the interaction would die (−) on selective media (−ADE, −HIS)
T7 construct: expressed in transfected cells
T7 sequence (P36601 whole entry, looked up): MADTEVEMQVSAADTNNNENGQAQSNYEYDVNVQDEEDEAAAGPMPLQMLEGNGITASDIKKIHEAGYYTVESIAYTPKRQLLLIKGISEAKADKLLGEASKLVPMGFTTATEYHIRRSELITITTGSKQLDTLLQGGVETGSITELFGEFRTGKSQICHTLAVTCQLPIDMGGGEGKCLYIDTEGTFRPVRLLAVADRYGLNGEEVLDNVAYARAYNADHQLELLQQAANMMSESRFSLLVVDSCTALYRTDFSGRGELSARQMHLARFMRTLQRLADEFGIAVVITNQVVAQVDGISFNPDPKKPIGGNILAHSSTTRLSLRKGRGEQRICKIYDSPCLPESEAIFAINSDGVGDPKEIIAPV
Protocol: as §1

KRRRRRRRKRLGVRLRVSRML [SEQ ID NO.: 5]
+: SEQ ID NO.: 5 Binding [1] | SEQ ID NO.: 5 Binding [2] | Y2H interaction with SEQ ID NO.: 5 [4] | Compound 5 Sequence Binding [5] | Compound 5 Sequence Binding [8] | Compound 5 Sequence Binding [9]
−: SEQ ID NO.: 5 Binding [3] | Compound 5 Sequence Binding [6] | Compound 5 Sequence Binding [7]
